The results in this text go back to publication doi:10.1101/2024.05.31.596772.

The assay addresses microtubules (pig (purified from porcine brain)). Briefly: co-sedimentation.

Sequence of CKK dimer (mRFP1-FKBP-CKK and mEGFP-FRB-CKK with rapamycin) (Q80VC9 whole entry, looked up, one chain of several): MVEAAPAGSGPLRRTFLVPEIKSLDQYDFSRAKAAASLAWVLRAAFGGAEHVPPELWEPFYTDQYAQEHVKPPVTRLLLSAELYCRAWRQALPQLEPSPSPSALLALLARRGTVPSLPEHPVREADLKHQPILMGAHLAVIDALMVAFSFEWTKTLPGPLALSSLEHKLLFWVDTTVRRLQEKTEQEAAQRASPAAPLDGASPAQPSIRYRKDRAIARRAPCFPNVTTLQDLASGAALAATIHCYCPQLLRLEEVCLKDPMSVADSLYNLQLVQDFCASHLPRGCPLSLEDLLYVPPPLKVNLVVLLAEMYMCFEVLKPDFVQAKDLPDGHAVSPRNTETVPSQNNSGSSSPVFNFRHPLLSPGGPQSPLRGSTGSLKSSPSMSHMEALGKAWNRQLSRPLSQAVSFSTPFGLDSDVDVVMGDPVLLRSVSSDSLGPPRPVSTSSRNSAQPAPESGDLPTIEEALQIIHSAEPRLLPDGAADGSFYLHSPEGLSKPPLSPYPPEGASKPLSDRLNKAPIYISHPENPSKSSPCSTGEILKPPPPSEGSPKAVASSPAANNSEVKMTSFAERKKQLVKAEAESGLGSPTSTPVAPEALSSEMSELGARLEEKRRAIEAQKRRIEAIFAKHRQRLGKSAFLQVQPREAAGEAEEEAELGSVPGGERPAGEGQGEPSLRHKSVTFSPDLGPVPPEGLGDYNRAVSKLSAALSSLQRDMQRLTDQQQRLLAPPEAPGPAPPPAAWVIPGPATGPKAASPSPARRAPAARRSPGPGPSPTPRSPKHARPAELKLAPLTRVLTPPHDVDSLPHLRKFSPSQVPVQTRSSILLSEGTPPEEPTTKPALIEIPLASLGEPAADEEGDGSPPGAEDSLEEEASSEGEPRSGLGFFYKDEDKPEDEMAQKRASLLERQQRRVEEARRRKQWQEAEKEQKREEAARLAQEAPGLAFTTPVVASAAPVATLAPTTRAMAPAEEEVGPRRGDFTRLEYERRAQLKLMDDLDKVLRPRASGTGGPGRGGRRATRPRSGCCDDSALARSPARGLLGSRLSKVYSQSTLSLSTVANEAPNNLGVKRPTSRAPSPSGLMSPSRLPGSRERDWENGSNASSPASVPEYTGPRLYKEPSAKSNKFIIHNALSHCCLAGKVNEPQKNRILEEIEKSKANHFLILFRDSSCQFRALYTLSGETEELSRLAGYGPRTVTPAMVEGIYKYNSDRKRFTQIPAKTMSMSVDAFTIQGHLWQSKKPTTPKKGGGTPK

A word on the Kd: it is the equilibrium constant for the complex coming apart. Read a high Kd as weaker binding. “CKK dimer (mRFP1-FKBP-CKK and mEGFP-FRB-CKK with rapamycin) (from UniProt Q80VC9 1112-1246; Q80VC9 1112-1246) (complex)” gave an equilibrium dissociation constant (Kd) of 147 nM.
